T1: human FcγRIIa type H (human, UniProt P12318 36-217)
T1 construct: also called FcγRIIaH; FcγRIIa(H)
T1 sequence: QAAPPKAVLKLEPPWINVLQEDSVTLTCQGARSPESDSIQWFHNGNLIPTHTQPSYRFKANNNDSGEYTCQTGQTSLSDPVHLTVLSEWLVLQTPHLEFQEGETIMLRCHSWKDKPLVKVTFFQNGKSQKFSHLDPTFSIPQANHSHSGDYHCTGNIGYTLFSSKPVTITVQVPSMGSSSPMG

T2: human FcγRIIa type R (human, UniProt P12318 36-217)
T2 construct: also called FcγRIIaR; FcγRIIa(R)
T2 chain: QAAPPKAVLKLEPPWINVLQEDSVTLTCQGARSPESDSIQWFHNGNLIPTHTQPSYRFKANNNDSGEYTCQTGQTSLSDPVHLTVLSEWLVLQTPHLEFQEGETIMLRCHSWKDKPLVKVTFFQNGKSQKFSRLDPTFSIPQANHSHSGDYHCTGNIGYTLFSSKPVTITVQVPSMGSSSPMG

T3: FcγRIIa type H (human, UniProt P12318 36-217)
T3 construct: also called FcγRIIaH; FcγRIIa(H)
T3 sequence: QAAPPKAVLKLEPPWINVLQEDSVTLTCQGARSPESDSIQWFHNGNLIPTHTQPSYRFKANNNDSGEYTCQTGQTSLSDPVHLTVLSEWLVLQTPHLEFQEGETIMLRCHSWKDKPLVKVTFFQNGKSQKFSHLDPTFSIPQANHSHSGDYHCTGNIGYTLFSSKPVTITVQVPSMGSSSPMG

T4: FcγRIIb (human, UniProt P31994 43-217, limits assumed)
T4 construct: also called FcγIIB; CD32
T4 sequence: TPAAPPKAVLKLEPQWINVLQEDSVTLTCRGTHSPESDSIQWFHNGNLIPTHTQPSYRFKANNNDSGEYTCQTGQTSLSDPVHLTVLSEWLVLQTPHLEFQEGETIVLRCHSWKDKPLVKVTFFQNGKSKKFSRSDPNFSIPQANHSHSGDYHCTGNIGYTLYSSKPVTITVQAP

T5: human FcγRIIb (human, UniProt P31994 43-217, limits assumed)
T5 construct: also called FcγIIB
T5 sequence: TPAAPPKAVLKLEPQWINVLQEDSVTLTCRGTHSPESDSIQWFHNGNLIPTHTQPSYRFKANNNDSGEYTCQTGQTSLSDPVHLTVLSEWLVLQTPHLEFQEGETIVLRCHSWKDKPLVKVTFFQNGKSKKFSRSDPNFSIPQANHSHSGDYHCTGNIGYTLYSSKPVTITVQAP

T6: FcγRIIa type R (human, UniProt P12318 36-217)
T6 construct: also called FcγRIIaR; FcγRIIa(R)
T6 chain: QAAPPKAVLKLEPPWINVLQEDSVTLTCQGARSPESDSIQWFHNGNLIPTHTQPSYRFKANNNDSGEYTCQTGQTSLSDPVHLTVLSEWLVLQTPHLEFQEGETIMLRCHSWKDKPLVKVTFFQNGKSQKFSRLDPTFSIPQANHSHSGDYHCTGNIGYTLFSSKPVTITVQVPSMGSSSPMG


Columns and labels:
[1] = biological target: T1, human FcγRIIa type H; test: SPR (Biacore), binding amount relative to IL6R-BF648/IL6R-L = 100
[2] = biological target: T7, human FcγRIIIa type V (human, UniProt P08637 17-208, limits assumed); test: as above
T7 construct: also called FcγRIIIaV; FcγRIIIa(V)
T7 sequence (P08637 other isoform, or with tags, fused parts or gaps limits assumed): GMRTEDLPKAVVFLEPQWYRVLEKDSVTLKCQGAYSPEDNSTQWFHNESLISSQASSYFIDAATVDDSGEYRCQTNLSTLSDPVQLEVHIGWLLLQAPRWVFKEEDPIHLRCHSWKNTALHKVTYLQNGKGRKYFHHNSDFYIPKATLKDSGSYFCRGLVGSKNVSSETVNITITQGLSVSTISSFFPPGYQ

[3] = biological target: T2, human FcγRIIa type R; test: as above
[4] = biological target: T8, human FcγRIa (human, UniProt P12314 16-292, limits assumed); test: as above
T8 construct: also called CD64
T8 sequence (P12314 16-292 limits assumed): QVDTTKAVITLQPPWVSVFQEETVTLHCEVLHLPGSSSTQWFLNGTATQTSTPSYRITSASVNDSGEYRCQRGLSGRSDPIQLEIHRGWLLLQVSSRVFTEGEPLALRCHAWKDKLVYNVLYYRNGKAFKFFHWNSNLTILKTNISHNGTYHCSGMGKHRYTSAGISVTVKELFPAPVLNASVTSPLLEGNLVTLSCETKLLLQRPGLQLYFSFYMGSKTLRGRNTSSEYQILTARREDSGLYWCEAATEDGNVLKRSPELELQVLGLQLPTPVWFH

[5] = biological target: T3, FcγRIIa type H; test: SPR (Biacore), method of Example 14
From the text: (§1) Furthermore, KD(IIaR)/KD(IIb) and KD(IIaH)/KD(IIb) in the table respectively represent the value obtained by dividing the KD value of each variant for FcγRIIaR by the KD value of each variant for FcγRIIb, and the value obtained by dividing the KD value of each variant for FcγRIIaH by the KD value of each variant for FcγRIIb. KD(IIb) of the parent polypeptide/KD(IIb) of the altered polypeptide refers to the value obtained by dividing the KD value of the parent polypeptide for FcγRIIb by the KD value of each variant for FcγRIIb.

[6] = biological target: T9, FcγRIa (human, UniProt P12314 16-292, limits assumed); test: SPR (Biacore), method of Example 14
T9 construct: also called CD64
T9 sequence (P12314 16-292 limits assumed): as above
From the text: as §1

[7] = biological target: T10, FcγRIIIa type V (human, UniProt P08637 17-208, limits assumed); test: SPR (Biacore), method of Example 14
T10 construct: also called FcγRIIIaV; FcγRIIIa(V)
T10 sequence (P08637 17-208 F176V limits assumed): as the sequence (P08637 other isoform, or with tags, fused parts or gaps limits assumed) above, with S179A counted along it
From the text: as §1

[8] = biological target: T4, FcγRIIb; test: SPR (Biacore), method of Example 14
From the text: as §1

[9] = biological target: T4, FcγRIIb; test: ratio of SPR KD values, parent IL6R-B3/IL6R-L
From the text: as §1

[10] = biological target: T5, human FcγRIIb; test: SPR (Biacore), binding amount relative to IL6R-BF648/IL6R-L = 100
[11] = biological target: T6, FcγRIIa type R; test: SPR (Biacore), method of Example 14
From the text: as §1

Row | relative binding [1] | relative binding [2] | relative binding [3] | relative binding [4] | Kd [5] [µM] | Kd [6] [µM] | Kd [7] [µM] | Kd [8] [µM] | KD(IIb) of the parent polypeptide/KD(IIb) of altered polypeptide [9] [fold] | relative binding [10] | Kd [11] [µM] | Binder
1 | 147 | 147 | 103 | 118 |  |  |  |  |  |  |  | IL6R-2B002/IL6R-L (antibody, human IgG1, Alteration introduced into IL6R-B3; also called P238D/E233D) heavy: QVQLQESGPGLVKPSETLSLTCAVSGHSISHDHAWSWVRQPPGEGLEWIGFISYSGITNYNPSLQGRVTISRDNSKNTLYLQMNSLRAEDTAVYYCARSLARTTAMDYWGEGTLVTVSSASTKGPSVFPLAPSSKSTSGGTAALGCLVKDYFPEPVTVSWNSGALTSGVHTFPAVLQSSGLYSLSSVVTVPSSSLGTQTYICNVNHKPSNTKVDKKVEPKSCDKTHTCPPCPAPDLLGGDSVFLFPPKPKDTLMISRTPEVTCVVVDVSHEDPEVKFNWYVDGVEVHNAKTKPREEQYNSTYRVVSVLTVLHQDWLNGKEYKCKVSNKALPAPIEKTISKAKGQPREPQVYTLPPSRDELTKNQVSLTCLVKGFYPSDIAVEWESNGQPENNYKTTPPVLDSDGSFFLYSKLTVDKSRWQQGNVFSCSVMHEALHNHYTQESLSLSP light: DIQMTQSPSSLSASVGDRVTITCRASQDISSYLNWYQQKPGKAPKLLIYYTSRLHSGVPSRFSGSGSGTDFTFTISSLQPEDIATYYCQQGNTLPYTFGQGTKVEIK
2 | 89 | 91 | 101 |  |  |  |  |  |  |  |  | IL6R-BP078/IL6R-L (antibody, human IgG1, Alteration introduced into IL6R-B3; also called P238D/A330M) heavy: QVQLQESGPGLVKPSETLSLTCAVSGHSISHDHAWSWVRQPPGEGLEWIGFISYSGITNYNPSLQGRVTISRDNSKNTLYLQMNSLRAEDTAVYYCARSLARTTAMDYWGEGTLVTVSSASTKGPSVFPLAPSSKSTSGGTAALGCLVKDYFPEPVTVSWNSGALTSGVHTFPAVLQSSGLYSLSSVVTVPSSSLGTQTYICNVNHKPSNTKVDKKVEPKSCDKTHTCPPCPAPELLGGDSVFLFPPKPKDTLMISRTPEVTCVVVDVSHEDPEVKFNWYVDGVEVHNAKTKPREEQYNSTYRVVSVLTVLHQDWLNGKEYKCKVSNKALPMPIEKTISKAKGQPREPQVYTLPPSRDELTKNQVSLTCLVKGFYPSDIAVEWESNGQPENNYKTTPPVLDSDGSFFLYSKLTVDKSRWQQGNVFSCSVMHEALHNHYTQESLSLSP light: DIQMTQSPSSLSASVGDRVTITCRASQDISSYLNWYQQKPGKAPKLLIYYTSRLHSGVPSRFSGSGSGTDFTFTISSLQPEDIATYYCQQGNTLPYTFGQGTKVEIK
3 |  |  |  |  | 20 | 0.011 | 44 | 0.2 | 15.7 |  |  | IL6R-BP198/IL6R-L (antibody, human IgG1, Anti-IL-6R human IgG1 variant; copies: 2 + 2) heavy: QVQLQESGPGLVKPSETLSLTCAVSGHSISHDHAWSWVRQPPGEGLEWIGFISYSGITNYNPSLQGRVTISRDNSKNTLYLQMNSLRAEDTAVYYCARSLARTTAMDYWGEGTLVTVSSASTKGPSVFPLAPSSKSTSGGTAALGCLVKDYFPEPVTVSWNSGALTSGVHTFPAVLQSSGLYSLSSVVTVPSSSLGTQTYICNVNHKPSNTKVDKKVEPKSCDKTHTCPPCPAPDYLGGDSVFLFPPKPKDTLMISRTPEVTCVVVDVSDEDGEVKFNWYVDGVEVHNAKTKPREEQYNSTYRVVSVLTVLHQDWLNGKEYKCKVSNAALPKPIEKTISKAKGQPREPQVYTLPPSRDELTKNQVSLTCLVKGFYPSDIAVEWESNGQPENNYKTTPPVLDSDGSFFLYSKLTVDKSRWQQGNVFSCSVMHEALHNHYTQESLSLSP light: DIQMTQSPSSLSASVGDRVTITCRASQDISSYLNWYQQKPGKAPKLLIYYTSRLHSGVPSRFSGSGSGTDFTFTISSLQPEDIATYYCQQGNTLPYTFGQGTKVEIK
4 | 103 |  | 159 | 117 |  |  |  |  |  | 119 |  | IL6R-BP136/IL6R-L (antibody, human IgG1, Alteration introduced into IL6R-B3; also called P238D/K326A) heavy: QVQLQESGPGLVKPSETLSLTCAVSGHSISHDHAWSWVRQPPGEGLEWIGFISYSGITNYNPSLQGRVTISRDNSKNTLYLQMNSLRAEDTAVYYCARSLARTTAMDYWGEGTLVTVSSASTKGPSVFPLAPSSKSTSGGTAALGCLVKDYFPEPVTVSWNSGALTSGVHTFPAVLQSSGLYSLSSVVTVPSSSLGTQTYICNVNHKPSNTKVDKKVEPKSCDKTHTCPPCPAPELLGGDSVFLFPPKPKDTLMISRTPEVTCVVVDVSHEDPEVKFNWYVDGVEVHNAKTKPREEQYNSTYRVVSVLTVLHQDWLNGKEYKCKVSNAALPAPIEKTISKAKGQPREPQVYTLPPSRDELTKNQVSLTCLVKGFYPSDIAVEWESNGQPENNYKTTPPVLDSDGSFFLYSKLTVDKSRWQQGNVFSCSVMHEALHNHYTQESLSLSP light: DIQMTQSPSSLSASVGDRVTITCRASQDISSYLNWYQQKPGKAPKLLIYYTSRLHSGVPSRFSGSGSGTDFTFTISSLQPEDIATYYCQQGNTLPYTFGQGTKVEIK
5 | 108 |  | 101 | 52 |  |  |  |  |  | 119 |  | IL6R-BP911/IL6R-L (antibody, human IgG1, Alteration introduced into IL6R-B3; also called P238D/A330K) heavy: QVQLQESGPGLVKPSETLSLTCAVSGHSISHDHAWSWVRQPPGEGLEWIGFISYSGITNYNPSLQGRVTISRDNSKNTLYLQMNSLRAEDTAVYYCARSLARTTAMDYWGEGTLVTVSSASTKGPSVFPLAPSSKSTSGGTAALGCLVKDYFPEPVTVSWNSGALTSGVHTFPAVLQSSGLYSLSSVVTVPSSSLGTQTYICNVNHKPSNTKVDKKVEPKSCDKTHTCPPCPAPELLGGDSVFLFPPKPKDTLMISRTPEVTCVVVDVSHEDPEVKFNWYVDGVEVHNAKTKPREEQYNSTYRVVSVLTVLHQDWLNGKEYKCKVSNKALPKPIEKTISKAKGQPREPQVYTLPPSRDELTKNQVSLTCLVKGFYPSDIAVEWESNGQPENNYKTTPPVLDSDGSFFLYSKLTVDKSRWQQGNVFSCSVMHEALHNHYTQESLSLSP light: DIQMTQSPSSLSASVGDRVTITCRASQDISSYLNWYQQKPGKAPKLLIYYTSRLHSGVPSRFSGSGSGTDFTFTISSLQPEDIATYYCQQGNTLPYTFGQGTKVEIK
6 | 97 |  | 103 | 98 |  |  |  |  |  | 106 |  | IL6R-BP142/IL6R-L (antibody, human IgG1, Alteration introduced into IL6R-B3; also called P238D/K326N) heavy: QVQLQESGPGLVKPSETLSLTCAVSGHSISHDHAWSWVRQPPGEGLEWIGFISYSGITNYNPSLQGRVTISRDNSKNTLYLQMNSLRAEDTAVYYCARSLARTTAMDYWGEGTLVTVSSASTKGPSVFPLAPSSKSTSGGTAALGCLVKDYFPEPVTVSWNSGALTSGVHTFPAVLQSSGLYSLSSVVTVPSSSLGTQTYICNVNHKPSNTKVDKKVEPKSCDKTHTCPPCPAPELLGGDSVFLFPPKPKDTLMISRTPEVTCVVVDVSHEDPEVKFNWYVDGVEVHNAKTKPREEQYNSTYRVVSVLTVLHQDWLNGKEYKCKVSNNALPAPIEKTISKAKGQPREPQVYTLPPSRDELTKNQVSLTCLVKGFYPSDIAVEWESNGQPENNYKTTPPVLDSDGSFFLYSKLTVDKSRWQQGNVFSCSVMHEALHNHYTQESLSLSP light: DIQMTQSPSSLSASVGDRVTITCRASQDISSYLNWYQQKPGKAPKLLIYYTSRLHSGVPSRFSGSGSGTDFTFTISSLQPEDIATYYCQQGNTLPYTFGQGTKVEIK
7 |  |  |  |  | 29 | 0.022 | 65 | 0.84 | 3.7 |  | 19 | IL6R-BP207/IL6R-L (antibody, human IgG1, Anti-IL-6R human IgG1 variant; copies: 2 + 2) heavy: QVQLQESGPGLVKPSETLSLTCAVSGHSISHDHAWSWVRQPPGEGLEWIGFISYSGITNYNPSLQGRVTISRDNSKNTLYLQMNSLRAEDTAVYYCARSLARTTAMDYWGEGTLVTVSSASTKGPSVFPLAPSSKSTSGGTAALGCLVKDYFPEPVTVSWNSGALTSGVHTFPAVLQSSGLYSLSSVVTVPSSSLGTQTYICNVNHKPSNTKVDKKVEPKSCDKTHTCPPCPAPDLLGGDSVFLFPPKPKDTLMISRTPEVTCVVVDVSHEDPEVKFNWYVDGVEVHNAKTKPREEQYNSTYRVVSVLTVLHQDWLNGKEYKCKVSNKALPRPIEKTISKAKGQPREPQVYTLPPSRDELTKNQVSLTCLVKGFYPSDIAVEWESNGQPENNYKTTPPVLDSDGSFFLYSKLTVDKSRWQQGNVFSCSVMHEALHNHYTQESLSLSP light: DIQMTQSPSSLSASVGDRVTITCRASQDISSYLNWYQQKPGKAPKLLIYYTSRLHSGVPSRFSGSGSGTDFTFTISSLQPEDIATYYCQQGNTLPYTFGQGTKVEIK
